# According to patent US12533393B2, “Vibrio cholerae protein for use against cancer” (priority 2019, dated 2026):
# Where a SMILES comes first, the peptide text is derived from it. The star is where a group is joined. Cbz = O=C(OCc1ccccc1)*; CH2F = FC*
# B1: MakA (protein, listed as Vibrio cholerae)
# chain: MSQQVTQLNPTQQTTQSAFLATTVITAQCHAILNTQFTPPTVKPDWFDDLSKKLDSAKLVAKQWIDDLGPQVSASIPSSVINFDATFQASIDAIHELYKADPTASGKDNTTVQQASQIMTALSSQVSGIEATVKGMNKELSDWGVKMQAAHDDLVNGATNIQKTIIDLQTDIESMNNAIDNNRAAIEKLNKDLVYAQVAVGVGIFMLVAGVALTVATAGTAAAVSGGIAAVGAASIIAGGVTWGVLQNQIDDDYDSIAQEQKQKAEDQQQIIALQGLSNASSAVVSAIETSTSVLSDFETTWTVFGNELDDVVTKLNNGASMQSIIMEKVMSDAAKNEWDDAVELAKQLASAKIAIETKELAPAVKQAA
# Columns and labels:
# [1] = test system: advanced colorectal cancer; conditions: cited from earlier work
# [2] = test system: HCT8 cells; test: MakA with 5FU, tumor cell morphology; format: cell-based, human; conditions: HCT8, compared to untreated control
# Procedure: B) Change in tumor cell morphology in response to MakA and 5FU or MakA at different concentration in combination with 5FU (20 μM). Scale bar=30 μm
# Further, the effect on tumor cell morphology was investigated. Unlike 5FU or MakA alone, the combination of MakA and 5FU caused massive changes in tumor cell morphology (FIG. 8B).
# [3] = test system: colon carcinoma cells; test: Caspase inhibition and MakA-induced cell death; format: cell-based, human; conditions: pretreatment; Presto Blue, MTS, flow cytometry
# Procedure: (§1) For cell death experiments, cells were grown on 96-well plate (1×10^4/well, Tecan Group Ltd) overnight and treated with MakA at different concentration for 48 hours at +37° C., 5% CO2. Cell death was quantified by two different biochemical methods: (1) reduction in PrestoBlue staining; and (2) reduction in MTS absorbance. Cell death is expressed as percentage (%) of untreated control cells for PrestoBlue assay or reduction in absorbance for MTS assay.
# (§2) For cell death analysis, cells were treated with MakA or vehicle control for 48 h and were subjected to flow cytometry analysis for apoptotic cell death measurement using either Annexin V/Propidium iodide or Annexin V/7AAD (BD Pharmingen) staining according to manufactures instruction. Percentage of apoptotic cells was determined by BD LSRII and BD Accuri C6 flow cytometer (BD Bioscience), respectively.
# To address if caspases plays an important role in MakA induced cell death, colon carcinoma cells were pretreated with zVAD-fmk, a pan caspase inhibitor; (Enzolifesciences, Cat #ALX-260-020-M001) followed by treatment with MakA.
# [4] = test system: β-catenin in HCT8 and DLD1 cells; test: β-catenin signaling in colon cancer cells (western blot, fractionation, confocal); format: cell-based, human
# Procedure: (§3) Colon carcinoma cells were grown on 8-well chamber slide (3×10^4/well, Millipore) overnight, followed by treatment with MakA for 6 or 24 hours and treated with either Alexa-568 labelled or unlabeled MakA (500 nM), fixed with 2% paraformaldehyde (20 min), permeabilized with Triton X (0.25%). Cells were incubated with anti-Ki67 (1:300), anti-β-catenin (1:300), anti-pAKT (1:100) primary antibodies overnight at +4° C., followed by incubation with corresponding Alexa-488 or Alex-568 conjugated secondary antibodies (1:200) for 1 hour. Finally, cells were counterstained with nuclear marker DAPI for 5 min. Slides were mounted with Fluoromount™ aqueous mounting medium (Sigma) and examined using EZC1 Eclipse laser scanning confocal microscope (Nikon), using 63×/1.4 plan Apo ns lens. Images were captured and processed using the NIS-Elements (Nikon) and ImageJ software.
# To examine whether MakA affects β-catenin signaling in human colon cancer cells, HCT8 and DLD1 cells carrying mutations that inactivates APC tumor suppressor gene (Mouradov, D. et al. (2014) Cancer Res. 2014 Jun. 15; 74(12):3238-47) were used.
# To address if MakA decreases the nuclear accumulation of β-catenin, cells were treated with MakA and fractionated into cytoplasmic and nuclear fractions.
# As caspase-3 mediated fragmentation of β-catenin has been reported (Steinhusen, U. et al. (2000) J Biol Chem 275: 16345-16353), its role in MakA induced β-catenin fragmentation was investigated.
# [5] = test system: colon carcinoma cells; test: Fluorescence and confocal microscopy of apoptosis markers; format: cell-based, human
# Description: (§4) A) MakA induces concentration-dependent apoptotic cell death in HCT8 cells. B) Quantification of flow cytometry events from (A). […] Scale bar=50 μm. D) MakA induces fragmentation of tumor cell nuclei. Scale bar=10 μm E) Accumulation of Bax (green) to the mitochondria of apoptotic cells by MakA. DAPI was used as a nuclear marker. Scale bar=10 μm. F) MakA caused loss of mitochondrial potential in colon carcinoma cells as evident by loss of DiOC6 staining, quantified by flow cytometry. G) MakA causes activation of pro-apoptotic proteins including caspase 3, cytochrome C and Bax and suppression of antiapoptotic protein, Bcl2.
# as §3
# [6] = test system: tumor cell migration; test: Tumor cell migration; format: cell-based
# [7] = test system: Bax, Bcl2, cytochrome c, caspase 3 in HCT8 cells; test: Western blotting of apoptosis proteins; format: cell-based, human
# Description: The regulation of apoptosis involves activation of caspases, increase in Bax/Bcl2 ratio and release of cytochrome c from mitochondria to cytoplasm (Elmore, S. (2007) Toxicol Pathol. 2007; 35(4): 495-516). The effect of MakA on expression of these proteins was investigated using western blotting.
# The effect of MakA on expression of cytochrome c and caspase 3 activation was investigated.
# [8] = test system: HCT8 cells; test: Apoptotic cell death by flow cytometry; format: cell-based, human; conditions: 48 h
# Procedure: as §2
# Apoptotic cell death in response to MakA was investigated using flow cytometry and fluorescent microscopy.
# [9] = test system: human colon carcinoma cells, HCT8; oral fibroblasts, PDL1; test: Live cell microscopy of cell morphology; format: cell-based; conditions: HCT8 versus PDL1
# Procedure: Cells were grown in 96 well plate (1×10^4/well, Tecan Group Ltd) overnight and treated with MakA at different concentration for 48 hours at +37° C., 5% CO2. Fluorescence and bright field images were captured with fluorescence microscope (Nikon, Eclipse Ti). Images were processed using the NIS-Elements (Nikon) and ImageJ software. For live cell confocal microscopy, cells were grown on a coverslip and treated with Alexa-568 labelled MakA for 6 or 24 hours at +37° C., 5% CO2.
# (§5) However, overexpression of at least three components (makCBA) or whole operon (makDCBA) was required for induction of lethality to C. elegans (FIG. 1A). The effect of purified MakA protein was investigated on in vitro cultured human tumor cell lines of diverse origin (HCT8 and DLD1=colon cancer cell, PC3=Prostate cancer cells, HTB9=Bladder cancer cell, PC3=Prostate cancer cell, Suit2=Pancreatic cancer cell, MCF7=Breast cancer cells).
# [10] = test system: Ki67, cyclin D1, VEGF in HCT8 and DLD1 cells; test: Ki67, cyclin D1 and VEGF expression; format: cell-based, human
# [11] = test system: tumor cell membrane; test: Transmission electron microscopy of membranes; format: cell-based; conditions: versus vehicle (Tris 20 mM)
# Description: To address if MakA accumulation at the cell surface may play an important role in tumor cell membrane perturbation, cells treated with MakA were compared to untreated cells and imaged with transmission electron microscopy (TEM). […] The mitochondrial damage was confirmed by confocal microscopy (FIG. 4B).
# [12] = test system: C. elegans; conditions: MakA overexpressed in E. coli; cited from earlier work
# [13] = test system: colon carcinoma cells; test: Mitochondrial potential by DiOC6 staining, flow cytometry; format: cell-based, human
# Description: as §4
# [14] = test system: PIP5K1α, PLCβ, caspase-3 in HCT8 cells; test: Immunoblot of phospholipid signaling proteins; format: cell-based, human; conditions: HCT8, MakA 500 nM
# Procedure: The effects of MakA on PIP5K1α, PLCβ, actin and caspase-3 were investigated. For immunoblot analysis, HCT8 cells treated with control or MakA toxin were collected and lysed with lysis buffer containing (50 mM Tris, 100 mM NaCl, 1 mM EDTA, 1 mM DTT, 1% Triton X 100, 2% SDS with 1× protease inhibitor cocktail and 1× phosphatase inhibitor). Protein samples were resolved on SDS-PAGE and processed for immunoblotting according to standard procedures. Antisera used were anti-PIP5K1a polyclonal antiserum (1:2000), anti-PLCβ polyclonal antiserum (1:2000), anti-actin polyclonal antiserum (1:5000), and anti-caspase 3 antiserum (1:1000) (all from Cell Signaling Technology, Inc).
# [15] = test system: human RBCs; test: Hemolysis of human RBCs; format: cell-based
# Description: However, overexpression of at least three components (makCBA) or whole operon (makDCBA) was required for lethality against C. elegans. (Dongre et al. (2018) Commun Biol. 2018 Jun. 7; 1:59) B) MakA causes cell death in tumor cell lines (HCT8 and DLD1=colon cancer cell, PC3=Prostate cancer cells, HTB9=Bladder cancer cell, PC3=Prostate cancer cell, Suit2=Pancreatic cancer cell, MCF7=Breast cancer cells) of diverse origin. The healthy non-cancerous cells from colon (CCD-18Co and CCD 841 CoN), prostate (PNT1A) and oral fibroblasts (PDL1) were intermediately sensitive compared to tumor cells. […] TritonX-100 (0.1%) induced RBCs hemolysis was used as a positive control. D) MakA induced dramatic changes in tumor cell morphology, unlike non-cancerous PDL1 fibroblasts that were largely unaffected. Scale bar=20 μm.
# [16] = test system: non-transformed colon cells (CCD-18Co and CCD 841 CoN), prostate (PNT1A) and oral fibroblasts (PDL1); test: Cell death assays in non-transformed cells; format: cell-based, human; conditions: at the concentration that effectively killed carcinoma cells
# Procedure: as §1, §5
# [17] = test system: CT26 cell line; test: CT26 xenograft mice model of colon cancer; format: in vivo; conditions: repeated intratumor injection, 25 μg, from day 9, sacrificed day 21, versus vehicle
# Procedure: (§6) A) Colon cancer was established using the rapidly proliferating CT26 cell line. From day 9, mice were treated by repeated intratumor injection of MakA (25 μg) or Vehicle (Tris 20 mM) at indicated intervals and sacrificed on day 21.
# as §6, with “The therapeutic effect of MakA against colon cancer was investigated in a well-established colon cancer model.” for “A)”, “21 (FIG. 7A).” for “21.”
# [18] = test system: tumor cell proliferation; test: Colony forming assay; format: cell-based
# Description: The effect of MakA on tumor cell proliferation was investigated.
# [19] = test system: human tumor cell lines of diverse origin (HCT8, DLD1, PC3, HTB9, Suit2, MCF7); test: Cell death assays (PrestoBlue, MTS) in tumor cell lines; format: cell-based; conditions: 48 hours
# Procedure: as §1, §5
# [20] = western blot, HCT8 and DLD1 cells
molecule,measurement,setting,value
"O=c1[nH]cc(F)c(=O)[nH]1 [5FU, 5-fluorouracil, reference compound]",overall response rate,[1],10-15%
same,tumor cell morphology,[2],caused increased cell size
"COC(=O)C[C@H](NC(=O)[C@H](C)NC(=O)[C@@H](NC(=O)OCc1ccccc1)C(C)C)C(=O)CF [zVAD-fmk, reference compound] (Cbz-Val-Ala-Asp(OMe)-CH2F)",effect of caspase inhibitor on MakA-induced cell death,[3],partially rescued the cells from MakA-induced cell death
same,effect of caspase inhibitor on MakA-induced β-catenin fragmentation,[4]; HCT8 and DLD1 cells,rescued both HCT8 and DLD1 cells from MakA-induced fragmentation and decrease in β-catenin
B1,Bax accumulation to mitochondria,[5],causes accumulation of active Bax to the mitochondria of an apoptotic cell
same,plasma membrane permeabilization (uptake of propidium iodide),[5],causes permeabilization of tumor cell plasma membrane
same,nuclear staining of apoptotic cells,[5]; fluorescence and confocal microscopy,nuclear fragmentation and chromatin condensation
same,β-catenin expression,[4]; HCT8 and DLD1 cells,caused suppression of β-catenin expression in both HCT8 and DLD1 cells
same,β-catenin localization,[4]; compared to untreated control,accumulate at the plasma membrane
same,β-catenin expression in cytoplasmic and nuclear fractions,[4]; fractionated cells,caused reduction in β-catenin expression both in cytoplasmic and nuclear fractions
same,β-catenin fragmentation,[4]; [20],β-catenin fragmentation was detected
same,tumor cell migration,[6],caused suppression of tumor cell migration in a dose dependent manner
same,caspase 3 activation,[7],activation of caspase 3
same,expression of Bax,[7],"induction in expression of pro-apoptotic protein, Bax"
same,expression of Bcl2,[7],"decrease in expression of anti-apoptotic protein, Bcl2"
same,expression of cytochrome c,[7],increase in cytochrome c expression
same,early and late apoptotic cell death,[8],dose-dependent increase in both early and late apoptotic cell death
same,plasma membrane remodeling,[9],"induced plasma membrane remodeling in human colon carcinoma cells, HCT8 but not in oral fibroblasts, PDL1"
same,Ki67 positive cells,[10],reduction in number of Ki67 positive cells
same,cyclin D1 expression,[10],reduction in cyclin D1 expression
same,expression of VEGF,[10]; [20],inhibited in both HCT8 and DLD1 cells
same,nuclear membrane by TEM,[11],irregular thin nuclear membrane indicating its damage
same,plasma membrane and mitochondria by TEM,[11],induced plasma membrane remodelling and mitochondrial damage
same,lethality to C. elegans,[12],not lethal to C. elegans
same,mitochondrial membrane potential,[13],caused depolarization of the mitochondrial membrane
same,cleaved caspase-3,[14],expression of cleaved caspase-3 was also observed
same,level of PIP5Kα,[14],efficiently reduce the level of PIP5Kα
same,level of PLC-β,[14],reduced level of PLC-β
same,lysis of human RBCs,[15],failed to induce lysis of human RBCs
same,sensitivity of non-transformed cells to MakA,[16],largely unaffected or intermediately sensitive
same,tumor cell morphology,[2],caused rounding of the cells
same,tumor volume,[17],caused significant reduction in tumor volume
same,tumor cell proliferation,[18],caused significant reduction in tumor cell proliferation
same,cell death in tumor cells,[19],induces cell death in diverse range of tumor cells in a dose-dependent manner
